{
  "source": "paper doi:10.1101/2023.08.23.554525",
  "target": "H1 hemagglutinin (A/New Caledonia/20/1999(H1N1)), recombinant HA trimer used for electron microscopy (influenza A virus A/New Caledonia/20/1999 (H1N1)) (UniProt Q6WG00)",
  "experiment": "cryo-EM structure",
  "data": [
    {"substance": "H1 hemagglutinin (A/New Caledonia/20/1999(H1N1)), recombinant HA trimer used for electron microscopy (from UniProt Q6WG00 1-565) (natural protein)", "values": [
      {"measurement": "stoichiometry N", "value": 3}
    ]}
  ]
}
